Data from article PMC5431456, “Structure aided design of a Neu5Gc specific lectin” (Scientific Reports, 2017).

B1: bovine α1-acid glycoprotein (AGP) (natural protein)
chain: QSPECANLMTVAPITNATMDLLSGKWFYIGSAFRNPEYNKSARAIQAAFFYLEPRHAEDKLITREYQTIEDKCVYNCSFIKIYRQNGTLSKVESDREHFVDLLLSKHFRTFMLAASWNGTKNVGVSFYADKPEVTQEQKKEFLDVIKCIGIQESEIIYTDEKKDACGPLEKQHEEERKKETEAS
modifications: glycans that contain both Neu5Ac and Neu5Gc
notes: also called Bovine α1-AGP; bovine AGP

What was measured:
Conditions in all cases: both partners purified
[1] = target: B1; test: SPR; Biacore T100; SubB or SubB mutant immobilised on a series S CM5 chip (flow cell 1 blank); AGP flowed over, 0.01-100 µM in range finding; single cycle kinetics
[2] = target: B1; test: SPR
[3] = target: T1, SubB ΔS106/ΔT107 (Escherichia coli, UniProt Q6EZC3 24-141, ΔS106/ΔT107); test: SPR
T1 construct: source: E. coli BL21(DE3), pET-23(+), purified (Ni-NTA)

| Binder | Kd [2] | also measured |
| --- | --- | --- |
| Subtilase cytotoxin B subunit (SubB), wild type (natural protein, also called Wild type SubB; wild-type SubB; source: E. coli BL21(DE3), pET-23(+), purified (Ni-NTA)) EWTGDARDGMFSGVVITQFHTGQIDNKPYFCIEGKQSAGSSISACSMKNSSVWGASFSTLYNQALYFYTTGQPVRIYYKPGVWTYPPFVKALTSNALVGLSTCTTSTECFGPDRKKNS | – | Kd [1]: 156 ± 22 nM |
| SubB S106A/T107A (natural protein, source: E. coli BL21(DE3), pET-23(+), purified (Ni-NTA)) EWTGDARDGMFSGVVITQFHTGQIDNKPYFCIEGKQSAGSSISACSMKNSSVWGASFSTLYNQALYFYTTGQPVRIYYKPGVWTYPPFVKALTSNALVGLSTCTTAAECFGPDRKKNS | 164 ± 10 nM | – |
| SubB ΔS106/ΔT107/E108D (natural protein, source: E. coli BL21(DE3), pET-23(+), purified (Ni-NTA)) EWTGDARDGMFSGVVITQFHTGQIDNKPYFCIEGKQSAGSSISACSMKNSSVWGASFSTLYNQALYFYTTGQPVRIYYKPGVWTYPPFVKALTSNALVGLSTCTTDCFGPDRKKNS | 32.5 ± 2.6 nM | – |
| B1 | – | Kd [3]: 115 ± 37 nM |
